The values below come from patent US20060211003.

For this data set, the system named is putative Thermus thermophilus Pol III ε-subunit.

With “Thermus thermophilus DNA Pol III α-subunit (DnaE)”, the “3′→5′ exonuclease activity” value was “This interaction stimulates the 3′→5′ exonuclease activity 5 fold”.
